# Assay: soluble fraction after stress (log2 fold change); higher = more stays soluble; pooled small domains, quantitative proteomics
# Details: stress: pH 4
# Method in brief: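 Custom libraries of small protein domains were pooled and exposed to pH 4. High-throughput quantitative proteomics then measured the log2 fold change in the amount of each domain still soluble, with higher values meaning more stayed soluble. This soluble-fraction fold change stands for aggregation propensity.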
row,Sequence,soluble fraction (log2)
1,HMAAADLNMRAKLADLGGMSYGELSIWEKTHGMEFAAWEHEWEKLNSGTQADGLKFPKHLPEGFPT,0.116
2,HMAAAKDVMDWQNAIRGLTDAKGKPYSPTYLKTVHNQLSALFNHAVRYYGLQVNPAAKAGNMGVEE,0.00664
3,HMAADDGSARAEQLREMYSLISGLDKLDKAIILMWLDERSYDEIAEVTGFTRNNVATRLHRIKSRLARQSN,-1.19
4,HMAAEIGSGVVDAYDLRLRSQPSTDAETIIYLDNGAKLSVQEDLGDWYKVVSGTYTGYVSAEYVAYTPSPE,-1.7
5,HMAAELHPYGADSYRGDNPPAGYEIKAKEESKKFHTPSSPWYGRTIAEIWFRTEEAAEAAGFINAVK,-0.272
6,HMAAELQALSVRELEVLDQLAGGASNREIAQRLYISENTVRNHVHSILTKLKLQNRTQLVGMT,-0.705
7,HMAAESWTEKSRALAAAGLVVMGRDAQTKIEELTNLAPLIEAANASNTRLLTSQSIDELLSIVPTEENL,-0.0379
8,HMAAGKGVTTGSVRLRKGSNTDSAIIATLKKDTELILYGKKDGWYSVKTSDGTEGFVSSKYVKVTEAY,-0.297
9,HMAAGLTPKQKAFADNYIKNGGNAAEAARAAGYSLKNVGANAGKLLKNPKIAAYIAEKQAELDRRNGT,-0.13
10,HMAAINPSALREPATPPEQLSAGDSVLHPRFGRGEILELQQQGGDPRAIVQFINEPKPRTLVLRYAQLRK,0.0977
11,HMAAKADAVKKAIAAIGKVDASEDSKAKVEAARKAYAALTEDQKKLVEASQLKLLTEAEAAYQQAVEESKK,-0.0736
12,HMAAMSLGERIGAHRKRMGISQEELGHRMGVSRQAVSKWETGRAVPDMENLLALARLFGVPVSELAD,-0.0628
13,HMAAPVGLTQRQMEVAALVADGLTNAEIGRRLHITERSAESHLERVRIRLGFRSRAQVAAWFVTQE,-0.493
14,HMAATHYEGIKQDGETDDAVIERVLTGLSVTANKDDIFIVKTLIAGTKYSYTAYVYNGNAWAAM,-0.255
15,HMAATSTGFPGVEVRGNSIRVFFMYKRDRHAHTLPLEPTRNNIKHADQLRSAALFALRNGTYNEADFFPHS,-0.509
16,HMAATVKVPDLTKMTPDEAQRALGQVGLKGKQGDDVDDDSVPVGYIAKQDEAPNSDAKAGDTITYHL,0.171
17,HMAAVSSHAVKQRIRSLIQAEDPASPLSDEALRLALSALGVEVSRRAVAKYRTSMDIPASSQRKK,0.238
18,HMADEDTILALAKEILASWPDKVEAYKNGNKGMLGLFMGELMKKSGGKANPKSASALIQKLLE,-0.231
19,HMADEIQLVVQVNGKLRGRIMVAPDASREEIEKTALADADVSRFLGDTPVKKVIIVPKRLVNIVAPAPK,0.0692
20,HMADENIELRKAGLKVTLPRVKILQILEAAKEPHMSAEDVYKALMEANEEVGLATVYRVLTQFESAGL,-0.232
21,HMADGKWTLTDAGYTFTYSDGRKARGTWEDIDGEWYHFDRNGIMETGWKTVGNIRYHFNQDGSL,-0.363
22,HMADIGRMKELIDILNRASAVYYQGKDEIMSNFEYDKLYDELVSLEKESGLVLAGSPTQKVGY,-0.0716
23,HMADKHVAAALLKLMDHLVGGRQYAFMKGRLTINKKVVLEATEVSAYRRGTGLSDADWQQRYE,-0.978
24,HMADLKRLNEQIHYLGQYLSTKATYKEFLQANNKKIYRSEHQDEIAKYEEAAQFLKRSSPDGTIPTMKDLR,0.0861
25,HMADLSAYAGKEGMTDSVLRPSGKVDIEGHILDAVSRGDFIEKGKRVIVIKAEGSYLVVKKRMP,0.166

row,Sequence,soluble fraction (log2)
1,HMADLTEEQKTLFRLIRDLQPVSSKTLLENSGFTRSTQTRLLNGLIEKQIVIRTGNGPATRYSLR,-0.307
2,HMADLTIDGVEYTKVSPTGTLTLEKVYTKNVTPADGQYYIQTGTKTVRVATDAEVAVIKAGGF,0.247
3,HMADNKDMQAAFMEALNGLKEYAKVNGNIVTKEDVNSYFKDMHLDDNKYSMITGYLMANGITIKG,-0.432
4,HMADPRFHSEIMLSKIESLLSGKADSDVSNYSIQGRSLTKMSLQELMDARESYDGLVKSEKAKLDAKY,-0.218
5,HMADPVTPQDLIRWSEALAGIARTGLGFTQSLYEQERFEEVLAVAADMRVAAGSSYNPDDLVHEWMKSVG,-0.34
6,HMADQVVGQLGMVTQRIDNLQQTGRVSANGLDWAARSENGQPIPQGMPVEVLRIEGVKLIVRPVN,-0.00119
7,HMADTIEVVVQVNGKVRAKISTSPEVFADSTKLQELALADANVQKFIAGQTIRKVIIPKGTKLLNIV,-0.55
8,HMADTSPEGVQKLIKAFEQFGVSKDDIEGFIQRRVDAITPANVVSLRKIFTSLRDGMSSAKDWFKGA,-0.325
9,HMADVIKLVNTSVLNVRSGAGINYSKIGSLTQGTKVNIISESNGWSKINYNGKIGYISSQYVSEVS,0.324
10,HMADVLLKHGSSGDYVWDLQYRLKTLSLFDQEMTGYFGPHTRQAVVNFQRKYGLPADGVVGPATWRALRK,-0.551
11,HMADVPSTIFEAYRILGLNPEAPPVAVKKVVDALRMSWHPDHARSEPDRRHREERIKQINAAWDLLKGV,-0.128
12,HMADVYFDGKFLGETPVTVAVSTTGKPAHEISLIRGGYEPWSTTYQGNPRPGQTATVMAILVHA,-0.121
13,HMAEAAVELSQQILARLLEAGGSLPLSDKSSPEDIHRLFGVSKRTFKKAIGGLYKKGLILIHPERIELP,-0.0448
14,HMAEAETVKFVGNSLLLVSGAAKGERLSVYTVGGQHVLSADATKPVDVAALHSGVYVVRTTNGVITKIVK,0.0831
15,HMAEATATVTASEMVVRSGPSSSYSVLGSLEKGTVVTVLAASDGIAKISYKGNTGYARIVDMELNSA,0.37
16,HMAEDDAVQKAVREAVAESADAVADYKAGSERALNFIVGVVMKKTRGKASPGEVHRLVKAEVEK,0.143
17,HMAEDLRTLDGIDEDLLRDLAQAGITTRDGLAELSIDELREITGVEPGEAEKIILAARAHWFETDE,-1.19
18,HMAEEGEQAASNTAAQAEDRAAELAAAGEKGKQITKTLVAEFGIPKNEAYRLALDAVAAVKAER,-0.427
19,HMAEEPLRIWTDLQGRSIEASFIKFSGNNIVIKMKSGRDYEVARSLFSPGDQKYLSDLKKSTPE,-0.0706
20,HMAEERVLSVPQSLAGERLDAALASLMPDYSRSRLASWIKEGLVTVDGAGAMPKQKLWGGETLRVQAQPT,0.0973
21,HMAEKAVELTENEKAIQTILSNGALEIGELKTKLELSGKQWDVALKGLAKHGITQVSKVEGVVTVGL,0.124
22,HMAEKGIGRVNADWLNMRTSPGGEVLTVLKQGTELQVIGRSGSWLEVQHGNEQGYVSSRYITIQP,0.132
23,HMAEKVIVVADSITVGELAEKLNLPVTNLIGELFKNGIVSTINQRIDFETASIIVEELGLDVELERK,-0.96
24,HMAELNLPVRKIGGEDYYYRQVKKKETIYGISKELGITKEDIIKYNPSVASGLQRNQILYFPVKDFK,0.322
25,HMAELVISVKADGTIHYQDRQLTKEALAAVLETRPEALLNLYVDEKAPFEAFVGVVDIARLKRGGHFVIST,-0.947
